# Reference: paper PMC6160062, “Designing antibodies against LRRK2-targeted tau epitopes” (PLoS ONE, 2018)
# B1: MHT2 monoclonal antibody (antibody, V domains shown)
# VH: EVQLQQSGAELVRPGALVKLSCKASGFNIKDYYMHWVKQRPEQGLEWIGWIDPENGNTIYDPKFQGKASITADTSSNTAYLQLSSLTSEDTAVYYCSSYYDYDYWG
# VL: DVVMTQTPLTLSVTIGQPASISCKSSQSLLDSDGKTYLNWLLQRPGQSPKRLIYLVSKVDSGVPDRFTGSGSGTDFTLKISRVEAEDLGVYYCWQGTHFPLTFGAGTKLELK
# notes: Isotype IgG1; For the BLI experiment only, the antibody was biotinylated with EZ-Link NHS-PEG4 and held on streptavidin sensors; also called antibody MHT2
# Target: T1, tau in human tauopathy brain tissue (neurofibrillary tangles) (Homo sapiens, UniProt P10636)
# T1 construct: microtubule associated protein tau, human, endogenous in brain; also called NFT tau; tau pathology in AD, FTD and PSP cases; source: endogenous, formalin fixed paraffin embedded human brain tissue (hippocampal region; AD, FTD, PSP cases)
# Test: immunostaining of cells or tissue; paraffin sections of mouse brain (rTg4510 and nontransgenic; 4.5, 6, 8.5, 10 months) or of human hippocampal tissue; citrate antigen retrieval; MHT2 overnight; ABC/DAB detection
# T1 sequence (P10636 whole entry): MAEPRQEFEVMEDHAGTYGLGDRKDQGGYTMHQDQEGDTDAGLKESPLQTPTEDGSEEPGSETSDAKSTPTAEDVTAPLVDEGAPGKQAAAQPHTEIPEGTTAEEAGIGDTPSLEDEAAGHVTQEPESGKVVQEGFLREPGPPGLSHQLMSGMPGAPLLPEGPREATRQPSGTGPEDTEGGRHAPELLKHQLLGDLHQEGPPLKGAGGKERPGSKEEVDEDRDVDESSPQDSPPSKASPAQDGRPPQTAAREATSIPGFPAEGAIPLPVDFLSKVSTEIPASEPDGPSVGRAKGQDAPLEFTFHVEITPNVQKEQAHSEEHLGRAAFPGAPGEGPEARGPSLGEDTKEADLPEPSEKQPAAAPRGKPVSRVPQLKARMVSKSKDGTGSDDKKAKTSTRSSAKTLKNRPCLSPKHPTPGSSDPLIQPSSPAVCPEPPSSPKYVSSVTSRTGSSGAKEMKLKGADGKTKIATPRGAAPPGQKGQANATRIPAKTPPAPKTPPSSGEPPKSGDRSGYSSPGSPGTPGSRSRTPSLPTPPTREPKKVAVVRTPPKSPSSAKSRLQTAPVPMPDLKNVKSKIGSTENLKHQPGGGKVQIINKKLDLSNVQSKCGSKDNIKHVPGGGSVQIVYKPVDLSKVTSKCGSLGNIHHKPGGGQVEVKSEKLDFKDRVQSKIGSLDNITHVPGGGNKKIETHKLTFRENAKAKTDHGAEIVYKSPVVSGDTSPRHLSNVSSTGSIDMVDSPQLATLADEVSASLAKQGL
binder,measurement,value
B1,binding result,binds
